{
  "source": "patent US20140147444A1",
  "about": "(published 2014)",
  "binders": {"B1": {"name": "Fab “AT” (Fab, V domains shown)", "VH": "QVQLVQSGAEVRKPGASVKVSCKASGYDFSNYAIHWVRQAPGQRLEWMGWINAGNGNTKFSQKFQGRITVTRDTAASTAYMELRSLRSEDTAVYYCARDSSNMVRGIIIAYYFDYWGQGTLVTVSS", "VL": "EIVMTQSPSSLSASVGDRVTITCRASQSISRYLNWYQLKPGKAPRLLIYGASSLQSGVPSRFSGSGSGAEFTLTISSLQPEDIATYYCQHTRAFGQGTKVEIKR", "notes": "Soluble Fab from E. coli periplasm purified on Talon resin; also called soluble Fab “AT”; Fab pattern “AT”"}, "B2": {"name": "“AT” antibody (full-length human IgG1) (antibody, V domains shown)", "VH": "QVQLVQSGAEVRKPGASVKVSCKASGYDFSNYAIHWVRQAPGQRLEWMGWINAGNGNTKFSQKFQGRITVTRDTAASTAYMELRSLRSEDTAVYYCARDSSNMVRGIIIAYYFDYWGQGTLVTVSS", "VL": "EIVMTQSPSSLSASVGDRVTITCRASQSISRYLNWYQLKPGKAPRLLIYGASSLQSGVPSRFSGSGSGAEFTLTISSLQPEDIATYYCQHTRAFGQGTKVEIKR", "notes": "Expressed in CHO cells; also called “AT” Ab; not shown: human IgG1 CH1, hinge, CH2 and CH3"}, "B3": {"name": "Fab “Y” (Fab, V domains shown)", "VH": "EVQLVQSGAEVRKPGASVKVSCKASGYDFSNYAIHWVRQAPGQRLEWMGWINAGNGNTKFSQKFQGRITVTRDTAASTAYMELRSLRSEDTAVYYCARDSSNMVRGIIIAYYFDYWGQGTLVTVSS", "VL": "EIVLTQSPATLSFSPGERATLSCRASQSVGSYLAWYQQRPGQAPRPLIYDATNRATGIPTRFSGSGSGTDFTLTISSLEPEDFATYYCQHRRTFGRGTKLEIKR", "notes": "also called soluble Fab “Y”; Fab pattern “Y”"}, "B4": {"name": "Fab “S” (Fab, V domains shown)", "VH": "EVQLLESGGGLVQPGRSLRLSCAASGFTFDDYAMHWVRQAPGKGLEWVSGISWNSGRIGYADSVKGRFTISRDNAKNSLYLQMNSLRPEDTAFYYCAKGGSTSARYSSGWYYWGQGTLVTVSS", "VL": "QSVLTQPPSVSVSPGQTATITCSGDALPKQYVYWYRQKPGQAPLLVIYEDSERPSGIPERFSGSSSGTEVTLSISGVQAEDEADYYCQSTDSSGTYVVFGGGTKLTVLS", "notes": "also called Fab pattern “S”"}, "B5": {"name": "human OPGbp [143-317] (ligand, UniProt O14788 143-317, looked up)", "chain": "EKAMVDGSWLDLAKRSKLEAQPFAHLTINATDIPSGSHKVSLSSWYHDRGWAKISNMTFSNGKLIVNQDGFYYLYANICFRHHETSGDLATEYLQLMVYVTKTSIKIPSSHTLMKGGSTKYWSGNSEFHFYSINVGGFFKLRSGEEISIEVSNPSLLDPDQDATYFGAFKVRDID", "notes": "also called OPGL"}},
  "key": {"[1]": {"target": "B5", "test": "FRET competition, inhibition of OPGbp-Eu binding to sODAR-Fc", "method": "(§1) A 1 hour preincubation with OPGbp was added for increased sensitivity. A soluble extracellular domain of human ODAR was constructed as a fusion polypeptide with an amino terminal FLAG tag and a carboxy terminal human Fc region. The Fc region is recognized and bound by a polyclonal goat anti-human Fc specific allophycocyanin (APC) which is detected by […] at 665 nm. […] Binding of OPGbp to ODAR in this assay triggers a fluorescent energy transfer and is highly sensitive for competition curves. A decrease in the A665/A620 absorbance ratio indicates inhibition of OPGbp binding to ODAR.\n(§2) The Fab “Y” clone 1B4 was from the predominant 9 member pattern from one 96-well plate (all with same amino acid sequence) from the optimized plated OPGbp screen using a 1 μM OPGbp elution for 90 min. […] Similar IC50's were obtained with the duplicate preparations “A” and “B”."}, "[2]": {"target": "B5", "test": "cell-based or functional assay"}, "[3]": {"target": "B5", "test": "FRET competition, inhibition of OPGbp-Eu binding to sODAR-Fc, in PBS", "method": "as §1, §2"}, "[4]": {"target": "B5", "test": "SPR (BIAcore), immobilized OPGbp [143-317]"}, "[5]": {"target": "B5", "test": "FRET competition, inhibition of OPGbp-Eu binding to sODAR-Fc, in TBS", "method": "as §1, §2"}, "[6]": {"target": "B5", "test": "SPR (BIAcore), OPGbp on CM5 chip", "method": "(§3) The binding constant (Kd), on rate constant (ka) and off rate constant (kd) for Fabs “AT” and “Y” and “AT” antibody were determined by surface plasmon resonance techniques (BIAcore, Pharmacia, Piscataway, N.J.) and the results are shown in Table II. Fabs were prepared as described in Example 4 and “AT” antibody prepared as described in Example 7. OPGbp was immobilized on a CM5-chip by standard amine coupling. The Kd and rate constants were determined by BIAEVALUATION 3.0 software (Pharmacia)."}, "[7]": {"target": "T1, murine OPGbp[158-316] (murine, UniProt O35235 158-316)", "T1 sequence": "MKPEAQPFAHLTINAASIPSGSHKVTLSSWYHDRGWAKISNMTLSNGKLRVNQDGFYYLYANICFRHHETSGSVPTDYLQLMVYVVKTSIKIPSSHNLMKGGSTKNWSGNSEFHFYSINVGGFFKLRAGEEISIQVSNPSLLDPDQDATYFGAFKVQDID", "test": "EIA on plates coated with murine OPGbp[158-316]", "method": "After overnight incubation, the protein solutions were removed from the plate and 200 μl of 5% Chicken Serum (Gibco/BRL Cat#16110-082) in PBST (PBS plus 0.05% Tween 20) was added to each well of the plate and plates were incubated at room temperature (RT) for 90 min with agitation. After incubation and blocking, plates were washed 4 times with 1×K-P wash solution in dH₂O (Cat#50-63-00, Kirkegaard & Perry Laboratories) and dried. […] Plates were incubated for three hours at room temperature with agitation, washed four times with 1× K-P wash solution and dried. Goat anti-human IgG (Fc) (Jackson ImmunoResearch, Cat#109-036-098) was diluted 1:5000 in 5% Chicken Serum in PBST and 100 μl was added to each well. […] 100 μl of undiluted ABTS substrate (Kirkegaard & Perry; Cat#50-66-00) was added to each well and the dish was incubated at room temperature until sufficient blue-green color developed. Color development was stopped by addition of 100 μl 1% SDS. Quantitation of color development was performed using a microtiter plate reader with detection at 405 nm."}, "[8]": {"target": "B5", "test": "SPR (BIAcore), immobilized OPGbp [143-317]", "remark": "listed apart in the source"}, "[9]": {"target": "B5", "test": "SPR (BIAcore), OPGbp on CM5 chip (47 RU)", "method": "as §3"}, "[10]": {"target": "B5", "test": "SPR (BIAcore), OPGbp on CM5 chip (80 RU)", "method": "as §3"}, "[11]": {"target": "B5", "test": "SPR (BIAcore), OPGbp on CM5 chip (147 RU)", "method": "as §3"}, "[12]": {"target": "B5", "test": "phage ELISA on plated OPGbp [143-317]"}, "[13]": {"target": "T2, soluble ODAR-Fc fusion (FLAG-human ODAR extracellular domain-human Fc) (human, UniProt Q9Y6Q6 30-212)", "T2 construct": "extracellular domain; also called sODAR-Fc; not shown: amino terminal FLAG tag; carboxy terminal human Fc region", "T2 sequence (looked up)": "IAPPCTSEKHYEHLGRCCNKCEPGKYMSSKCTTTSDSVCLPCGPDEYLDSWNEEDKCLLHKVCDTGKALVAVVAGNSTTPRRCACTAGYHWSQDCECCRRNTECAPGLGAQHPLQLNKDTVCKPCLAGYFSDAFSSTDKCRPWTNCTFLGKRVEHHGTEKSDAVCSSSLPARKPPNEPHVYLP", "test": "FRET competition, unlabelled OPGbp against OPGbp-Eu on sODAR-Fc, in TBS (positive control)", "method": "as §1, §2"}, "[14]": {"target": "T2, soluble ODAR-Fc fusion (FLAG-human ODAR …)", "test": "FRET competition, unlabelled OPGbp against OPGbp-Eu on sODAR-Fc, in PBS (positive control)", "method": "as §1, §2"}},
  "note": "Several values for one entry are separate records, joined by “and”; a condition that tells them apart may be missing. Equal entries are not always repeated.",
  "data": [
    {"binder": "B1", "values": [
      {"measurement": "IC50", "setting": "[1]", "value": 550, "unit": "nM"},
      {"measurement": "RAW cell assay (TRAP, OD405), IC50", "setting": "[2]", "value": "15 µg/ml and 300 nM"},
      {"measurement": "murine bone marrow assay, TRAP activity in solution (pNPP), 50% decrease (IC50)", "setting": "[2]", "value": 57.8, "unit": "nM"},
      {"measurement": "IC50", "setting": "[3]", "value": 440, "unit": "nM"},
      {"measurement": "koff", "setting": "[4]", "value": 0.284, "unit": "s⁻¹"},
      {"measurement": "IC50", "setting": "[5]", "value": 354, "unit": "nM"},
      {"measurement": "Kd", "setting": "[6]", "value": 140, "unit": "nM"},
      {"measurement": "koff", "setting": "[6]", "value": 0.31, "unit": "s⁻¹"},
      {"measurement": "kon", "setting": "[6]", "value": "2.2e+06", "unit": "M⁻¹ s⁻¹"}
    ]},
    {"binder": "B2", "values": [
      {"measurement": "binding result", "setting": "[7]", "value": "no binding (tested: 2 ug/ml down to 1.953 ng/ml)"},
      {"measurement": "Kd", "setting": "[8]", "value": 1.18, "unit": "nM"},
      {"measurement": "koff", "setting": "[8]", "value": 0.002, "unit": "s⁻¹"},
      {"measurement": "kon", "setting": "[8]", "value": "1.7e+06", "unit": "M⁻¹ s⁻¹"},
      {"measurement": "RAW cell assay, IC50, preparation “AT”405", "setting": "[2]", "value": "3 ug/ml and 20.1 nM"},
      {"measurement": "RAW cell assay, IC50, preparation “AT”406", "setting": "[2]", "value": "60.3 nM and 9 ug/ml"},
      {"measurement": "RAW cell assay, IC50, preparation “AT”407", "setting": "[2]", "value": "21.4 nM and 3.2 ug/ml"},
      {"measurement": "bone marrow assay, inhibition of TRAP formation, IC50, preparation “AT”406", "setting": "[2]", "value": "2.35 µg/ml and 14.4 nM"},
      {"measurement": "murine bone marrow assay, IC50, preparation “AT”405", "setting": "[2]", "value": "2.15 ug/ml and 14.4 nM"},
      {"measurement": "murine bone marrow assay, IC50, preparation “AT”407", "setting": "[2]", "value": "1.85 ug/ml and 12.5 nM"},
      {"measurement": "Kd", "setting": "[9]", "value": 0.43, "unit": "nM"},
      {"measurement": "koff", "setting": "[9]", "value": 0.0031, "unit": "s⁻¹"},
      {"measurement": "kon", "setting": "[9]", "value": "7.3e+06", "unit": "M⁻¹ s⁻¹"},
      {"measurement": "Kd", "setting": "[10]", "value": 0.33, "unit": "nM"},
      {"measurement": "koff", "setting": "[10]", "value": 0.0027, "unit": "s⁻¹"},
      {"measurement": "kon", "setting": "[10]", "value": "8.1e+06", "unit": "M⁻¹ s⁻¹"},
      {"measurement": "Kd", "setting": "[11]", "value": 0.42, "unit": "nM"},
      {"measurement": "koff", "setting": "[11]", "value": 0.0024, "unit": "s⁻¹"},
      {"measurement": "kon", "setting": "[11]", "value": "5.7e+06", "unit": "M⁻¹ s⁻¹"}
    ]},
    {"binder": "B3", "values": [
      {"measurement": "IC50", "setting": "[1]", "value": 6000, "unit": "nM"},
      {"measurement": "IC50", "setting": "[5]", "value": 4100, "unit": "nM"},
      {"measurement": "Kd", "setting": "[6]", "value": 594, "unit": "nM"},
      {"measurement": "koff", "setting": "[6]", "value": 0.00591, "unit": "s⁻¹"},
      {"measurement": "kon", "setting": "[6]", "value": 9440, "unit": "M⁻¹ s⁻¹"}
    ]},
    {"binder": "B4", "values": [
      {"measurement": "binding result", "setting": "[12]", "value": "binds"}
    ]},
    {"binder": "B5", "values": [
      {"measurement": "IC50", "setting": "[13]", "value": 0.89, "unit": "nM"},
      {"measurement": "IC50", "setting": "[14]", "value": 0.93, "unit": "nM"}
    ]}
  ]
}
